# Source: doi:10.1101/2025.10.06.680090
# Target: HAdV-C5 capsid (replication-defective, E1-deleted vector HAdV-C5-GFP) (human adenovirus type C5)
# Assay: SPR
substance,measurement,value
recombinant human langerin protein (hCD207) (from UniProt Q9UJ71 1-328) (receptor),Kd,39 nM
